# Assay results reported in the supplement of paper PMC9112550, “Optimization of the antimicrobial peptide Bac7 by deep mutational scanning” (BMC Biology, 2022).
# Tested on: Escherichia coli TOP10
# Assay: shrunken log2 fold change of peptide-encoding DNA abundance (4.5 h post-induction vs induction); higher = less antimicrobial activity (less host growth inhibition)
# Details: time post-induction: 4.5 h; library: site-saturation at positions 5, 18, 19, 20
# 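Further: peptides expressed intracellularly from a pBAD plasmid library in pooled LB shake-flask culture, induced with 0.3% L-arabinose, DNA abundance read by NGS, three biological replicates, DESeq2 with apeglm shrinkage.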
row,Sequence,shrunken log2 fold change
1,RRIRMRPPRLPRPRPRPDNTPRP,0.28
2,RRIRYRPPRLPRPRPRPMFTPRP,-0.629
3,RRIRFRPPRLPRPRPRPACWPRP,0.471
4,RRIRPRPPRLPRPRPRPLPCPRP,-0.407
5,RRIRTRPPRLPRPRPRPGELPRP,-0.108
6,RRIRKRPPRLPRPRPRPMHCPRP,3.88
7,RRIRNRPPRLPRPRPRPRQIPRP,0.151
8,RRIRPRPPRLPRPRPRPARIPRP,0.14
9,RRIRFRPPRLPRPRPRPGCHPRP,-0.141
10,RRIRTRPPRLPRPRPRPFCTPRP,-0.316
11,RRIRKRPPRLPRPRPRPKVGPRP,0.00386
12,RRIRKRPPRLPRPRPRPERNPRP,0.683
13,RRIRQRPPRLPRPRPRPRDKPRP,0.00325
14,RRIRPRPPRLPRPRPRPNNNPRP,-0.659
15,RRIRKRPPRLPRPRPRPSPDPRP,0.344
16,RRIRFRPPRLPRPRPRPDIHPRP,-0.268
17,RRIRKRPPRLPRPRPRPENNPRP,0.179
18,RRIRIRPPRLPRPRPRPPNAPRP,-0.0573
19,RRIRFRPPRLPRPRPRPKSGPRP,0.0565
20,RRIRRRPPRLPRPRPRPYEVPRP,-0.0692
21,RRIRDRPPRLPRPRPRPAAPPRP,0.545
22,RRIRMRPPRLPRPRPRPEGVPRP,3.21
23,RRIRDRPPRLPRPRPRPLSVPRP,-0.0465
24,RRIRIRPPRLPRPRPRPQFRPRP,-0.234
25,RRIRCRPPRLPRPRPRPNFHPRP,-0.259

row,Sequence,shrunken log2 fold change
1,RRIRNRPPRLPRPRPRPHDNPRP,-0.511
2,RRIRSRPPRLPRPRPRPFVYPRP,-0.368
3,RRIRNRPPRLPRPRPRPGFWPRP,0.0198
4,RRIRRRPPRLPRPRPRPPVLPRP,0.18
5,RRIRRRPPRLPRPRPRPQYPPRP,-0.444
6,RRIRHRPPRLPRPRPRPPATPRP,0.29
7,RRIRKRPPRLPRPRPRPLQCPRP,0.101
8,RRIRYRPPRLPRPRPRPKNTPRP,-0.579
9,RRIRNRPPRLPRPRPRPWLHPRP,-0.0277
10,RRIRPRPPRLPRPRPRPWLPPRP,-0.0294
11,RRIRFRPPRLPRPRPRPLGLPRP,-0.0983
12,RRIRGRPPRLPRPRPRPNWTPRP,0.0497
13,RRIRIRPPRLPRPRPRPHDPPRP,-0.296
14,RRIRARPPRLPRPRPRPPCQPRP,0.438
15,RRIRPRPPRLPRPRPRPFGYPRP,-0.24
16,RRIRLRPPRLPRPRPRPLVLPRP,-0.355
17,RRIRVRPPRLPRPRPRPNFWPRP,0.137
18,RRIRRRPPRLPRPRPRPRRYPRP,0.0835
19,RRIRERPPRLPRPRPRPCMNPRP,-0.341
20,RRIRPRPPRLPRPRPRPHTTPRP,0.0817
21,RRIRIRPPRLPRPRPRPQFVPRP,-0.229
22,RRIRTRPPRLPRPRPRPYMFPRP,-0.776
23,RRIRFRPPRLPRPRPRPMEFPRP,-0.194
24,RRIRDRPPRLPRPRPRPFCHPRP,-0.00713
25,RRIRCRPPRLPRPRPRPARPPRP,0.52
